From the supplement of paper PMC10567573

B1: PPFIA4 (parent)
chain: YAGNLHESGVHGALLALDENFDHN
B2: ANKRD40 (parent)
chain: VCCCELGVNPDQVEKIRKLPNTLL

Variants of: B1
Assay: protein stability index of a GFP-peptide fusion (GPS, HEK-293T) (PSI 1-6); higher = more stable
Settings: c terminus: a fixed tail appended
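Also: lentivirally expressed fusions sorted by FACS into six bins by GFP to DsRed ratio, PSI derived from sequencing read proportions per bin multiplied by bin number.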

**Q.** With YAGNLHESGVHGALLALDENFLHN as the variant, how does the protein stability index read?
**A.** 1.46

**Q.** Which protein stability index does the source give for YAGNLHESGVHGALLALDENFFHN here?
**A.** 2.01

**Q.** Which protein stability index does the source give for YAGNLHESGVHGALLALDENFIHN here?
**A.** 2.11

**Q.** Which protein stability index does the source give for YAGNLHESGVHGALLALDENFMHN here?
**A.** 2.3

**Q.** Which protein stability index does the source give for YAGNLHESGVHGALLALDENFSHN here?
**A.** 2.02

**Q.** With YAGNLHESGVHGALLALDENFTHN as the variant, how does the protein stability index read?
**A.** 1.87

**Q.** Which protein stability index does the source give for YAGNLHESGVHGALLALDENFEHN here?
**A.** 2.48

**Q.** For YAGNLHESGVHGALLALDENFGHN, which protein stability index is on record?
**A.** 2.4

**Q.** Which protein stability index does the source give for YAGNLHESGVHGALLALDENFRHN here?
**A.** 1.56

**Q.** With YAGNLHESGVHGALLALDENFVHN as the variant, how does the protein stability index read?
**A.** 1.27

**Q.** For YAGNLHESGVHGALLALDENFWHN, which protein stability index is on record?
**A.** 2.41

**Q.** For YAGNLHESGVHGALLALDENFPHN, which protein stability index is on record?
**A.** 2.47

**Q.** With YAGNLHESGVHGALLALDENFYHN as the variant, how does the protein stability index read?
**A.** 2.49

**Q.** Which protein stability index does the source give for YAGNLHESGVHGALLALDENFHHN here?
**A.** 1.84

**Q.** For YAGNLHESGVHGALLALDENFNHN, which protein stability index is on record?
**A.** 1.99

**Q.** Which protein stability index does the source give for YAGNLHESGVHGALLALDENFKHN here?
**A.** 2.37

**Q.** Which protein stability index does the source give for YAGNLHESGVHGALLALDENFQHN here?
**A.** 2.2

**Q.** With YAGNLHESGVHGALLALDENFDGN as the variant, how does the protein stability index read?
**A.** 2.46

**Q.** Which protein stability index does the source give for YAGNLHESGVHGALLALDENFDLN here?
**A.** 2.34

**Q.** For YAGNLHESGVHGALLALDENFDAN, which protein stability index is on record?
**A.** 2.18

**Q.** With YAGNLHESGVHGALLALDENFDCN as the variant, how does the protein stability index read?
**A.** 2.13

**Q.** For YAGNLHESGVHGALLALDENFDDN, which protein stability index is on record?
**A.** 2.58

**Q.** Which protein stability index does the source give for YAGNLHESGVHGALLALDENFDYN here?
**A.** 2.43

**Q.** With YAGNLHESGVHGALLALDENFDWN as the variant, how does the protein stability index read?
**A.** 2.07

**Q.** With YAGNLHESGVHGALLALDENFDSN as the variant, how does the protein stability index read?
**A.** 2.19

**Q.** Which protein stability index does the source give for YAGNLHESGVHGALLALDENFDTN here?
**A.** 2.61

**Q.** Which protein stability index does the source give for YAGNLHESGVHGALLALDENFDFN here?
**A.** 2.12

**Q.** For YAGNLHESGVHGALLALDENFDKN, which protein stability index is on record?
**A.** 2.53

**Q.** For YAGNLHESGVHGALLALDENFDNN, which protein stability index is on record?
**A.** 2.63

**Q.** For YAGNLHESGVHGALLALDENFDQN, which protein stability index is on record?
**A.** 2.22

**Q.** For YAGNLHESGVHGALLALDENFDEN, which protein stability index is on record?
**A.** 2.25

**Q.** For YAGNLHESGVHGALLALDENFDRN, which protein stability index is on record?
**A.** 2.47

**Q.** With YAGNLHESGVHGALLALDENFDVN as the variant, how does the protein stability index read?
**A.** 2.63

**Q.** Which protein stability index does the source give for YAGNLHESGVHGALLALDENFDPN here?
**A.** 2.81

**Q.** For YAGNLHESGVHGALLALDENFDIN, which protein stability index is on record?
**A.** 2.23

**Q.** Which protein stability index does the source give for YAGNLHESGVHGALLALDENFDMN here?
**A.** 2.19

**Q.** For YAGNLHESGVHGALLALDENFDHW, which protein stability index is on record?
**A.** 2.01

**Q.** For YAGNLHESGVHGALLALDENFDHY, which protein stability index is on record?
**A.** 2.47

**Q.** With YAGNLHESGVHGALLALDENFDHI as the variant, how does the protein stability index read?
**A.** 2.27

**Q.** Which protein stability index does the source give for YAGNLHESGVHGALLALDENFDHM here?
**A.** 1.92

**Q.** With YAGNLHESGVHGALLALDENFDHT as the variant, how does the protein stability index read?
**A.** 2.42

**Q.** With YAGNLHESGVHGALLALDENFDHF as the variant, how does the protein stability index read?
**A.** 2.01

**Q.** With YAGNLHESGVHGALLALDENFDHD as the variant, how does the protein stability index read?
**A.** 2.46

**Q.** With YAGNLHESGVHGALLALDENFDHH as the variant, how does the protein stability index read?
**A.** 1.9

**Q.** For YAGNLHESGVHGALLALDENFDHP, which protein stability index is on record?
**A.** 2.39

**Q.** With YAGNLHESGVHGALLALDENFDHG as the variant, how does the protein stability index read?
**A.** 2.13

**Q.** With YAGNLHESGVHGALLALDENFDHC as the variant, how does the protein stability index read?
**A.** 2.58

**Q.** For YAGNLHESGVHGALLALDENFDHV, which protein stability index is on record?
**A.** 1.95

**Q.** With YAGNLHESGVHGALLALDENFDHE as the variant, how does the protein stability index read?
**A.** 3.49

**Q.** Which protein stability index does the source give for YAGNLHESGVHGALLALDENFDHA here?
**A.** 2.69

**Q.** Which protein stability index does the source give for YAGNLHESGVHGALLALDENFDHL here?
**A.** 2.28

**Q.** With YAGNLHESGVHGALLALDENFDHS as the variant, how does the protein stability index read?
**A.** 2.41

**Q.** Which protein stability index does the source give for YAGNLHESGVHGALLALDENFDHQ here?
**A.** 2.69

**Q.** For YAGNLHESGVHGALLALDENFDHR, which protein stability index is on record?
**A.** 1.9

**Q.** For YAGNLHESGVHGALLALDENFDHK, which protein stability index is on record?
**A.** 2.02

Variants of: B2
Assay: as above
Settings: c terminus: a fixed tail appended

**Q.** Which protein stability index does the source give for CCCCELGVNPDQVEKIRKLPNTLL here?
**A.** 1.96

**Q.** Which protein stability index does the source give for PCCCELGVNPDQVEKIRKLPNTLL here?
**A.** 1.41

**Q.** For TCCCELGVNPDQVEKIRKLPNTLL, which protein stability index is on record?
**A.** 1.71

**Q.** With ICCCELGVNPDQVEKIRKLPNTLL as the variant, how does the protein stability index read?
**A.** 1.2

**Q.** Which protein stability index does the source give for WCCCELGVNPDQVEKIRKLPNTLL here?
**A.** 1.79

**Q.** For RCCCELGVNPDQVEKIRKLPNTLL, which protein stability index is on record?
**A.** 1.99

**Q.** Which protein stability index does the source give for SCCCELGVNPDQVEKIRKLPNTLL here?
**A.** 2.4

**Q.** Which protein stability index does the source give for QCCCELGVNPDQVEKIRKLPNTLL here?
**A.** 2.19

**Q.** For ECCCELGVNPDQVEKIRKLPNTLL, which protein stability index is on record?
**A.** 2.83

**Q.** For GCCCELGVNPDQVEKIRKLPNTLL, which protein stability index is on record?
**A.** 1.68

**Q.** With MCCCELGVNPDQVEKIRKLPNTLL as the variant, how does the protein stability index read?
**A.** 2

**Q.** Which protein stability index does the source give for ACCCELGVNPDQVEKIRKLPNTLL here?
**A.** 1.66

**Q.** With HCCCELGVNPDQVEKIRKLPNTLL as the variant, how does the protein stability index read?
**A.** 2.21

**Q.** With DCCCELGVNPDQVEKIRKLPNTLL as the variant, how does the protein stability index read?
**A.** 3.1

**Q.** With YCCCELGVNPDQVEKIRKLPNTLL as the variant, how does the protein stability index read?
**A.** 1.85

**Q.** Which protein stability index does the source give for LCCCELGVNPDQVEKIRKLPNTLL here?
**A.** 2.04

**Q.** With NCCCELGVNPDQVEKIRKLPNTLL as the variant, how does the protein stability index read?
**A.** 2.31

**Q.** With KCCCELGVNPDQVEKIRKLPNTLL as the variant, how does the protein stability index read?
**A.** 2.35

**Q.** With FCCCELGVNPDQVEKIRKLPNTLL as the variant, how does the protein stability index read?
**A.** 1.5

**Q.** For VCACELGVNPDQVEKIRKLPNTLL, which protein stability index is on record?
**A.** 2.42

**Q.** For VCDCELGVNPDQVEKIRKLPNTLL, which protein stability index is on record?
**A.** 2.31

**Q.** Which protein stability index does the source give for VPCCELGVNPDQVEKIRKLPNTLL here?
**A.** 3.22

**Q.** With VICCELGVNPDQVEKIRKLPNTLL as the variant, how does the protein stability index read?
**A.** 1.62

**Q.** For VYCCELGVNPDQVEKIRKLPNTLL, which protein stability index is on record?
**A.** 2.6

**Q.** For VNCCELGVNPDQVEKIRKLPNTLL, which protein stability index is on record?
**A.** 2.7

**Q.** With VQCCELGVNPDQVEKIRKLPNTLL as the variant, how does the protein stability index read?
**A.** 3.56

**Q.** Which protein stability index does the source give for VHCCELGVNPDQVEKIRKLPNTLL here?
**A.** 2.65

**Q.** With VLCCELGVNPDQVEKIRKLPNTLL as the variant, how does the protein stability index read?
**A.** 2.04

**Q.** With VACCELGVNPDQVEKIRKLPNTLL as the variant, how does the protein stability index read?
**A.** 2.85

**Q.** Which protein stability index does the source give for VFCCELGVNPDQVEKIRKLPNTLL here?
**A.** 1.9

**Q.** Which protein stability index does the source give for VVCCELGVNPDQVEKIRKLPNTLL here?
**A.** 3.24

**Q.** Which protein stability index does the source give for VMCCELGVNPDQVEKIRKLPNTLL here?
**A.** 2.4

**Q.** With VECCELGVNPDQVEKIRKLPNTLL as the variant, how does the protein stability index read?
**A.** 3.52

**Q.** Which protein stability index does the source give for VKCCELGVNPDQVEKIRKLPNTLL here?
**A.** 2.63

**Q.** With VDCCELGVNPDQVEKIRKLPNTLL as the variant, how does the protein stability index read?
**A.** 3.2

**Q.** With VWCCELGVNPDQVEKIRKLPNTLL as the variant, how does the protein stability index read?
**A.** 1.45

**Q.** For VSCCELGVNPDQVEKIRKLPNTLL, which protein stability index is on record?
**A.** 2.76

**Q.** For VTCCELGVNPDQVEKIRKLPNTLL, which protein stability index is on record?
**A.** 2.72

**Q.** With VGCCELGVNPDQVEKIRKLPNTLL as the variant, how does the protein stability index read?
**A.** 2.73
